The target of assay [1] is T1, cyno IL-13 (cynomolgus, UniProt Q0PW92 21-132).
T1 construct: also called cynomolgus IL-13
In words: SPR Biacore T100; captured on Protein A (CM5), cyno IL13 analyte; 'Impossible off-rates', beyond sensitivity. The procedure:
(§1) All binding curves were double referenced with a OnM injection (i.e. buffer alone).
(§2) Regeneration of the Protein A surface was with 50 mM NaOH. The assay was run at 25° C. using HBS-EP as running buffer. The data was fitted to 1:1 model inherent to the Biacore T100 analysis software.
Background: In SPR one partner is held on a chip, and binding of the other changes the refractive index at the surface.

Assay [2] deals with T2, human IL-13 (human, UniProt P35225 35-146). As to the kind of experiment: cell-based or functional assay.
Assay [3] has as its target T3, human IL-4 (human, UniProt P05112 25-153).
T3 construct: also called recombinant E. coli-expressed human IL-4
T3 sequence (looked up): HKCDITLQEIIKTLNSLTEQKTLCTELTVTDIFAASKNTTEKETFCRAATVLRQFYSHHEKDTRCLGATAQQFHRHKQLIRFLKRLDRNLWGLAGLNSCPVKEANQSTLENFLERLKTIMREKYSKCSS
In words: SPR Biacore T100; mAbdAb captured on Protein A (CM5), human IL4 analyte. How it is done:
as §1, §2

Assay [4] concerns the target T3, human IL-4. In words: SPR Biacore T100; captured on Protein A (CM5), human IL4 analyte; footnote: on- and off-rate not measurable.
In assay [5] the target is T2, human IL-13. In words: cell-based or functional assay. This is another data set of the same source.

Broadly, the Kd is a measure of binding affinity in units of concentration. A lower Kd goes with higher affinity. A word on the koff: it is the rate constant with which the complex falls apart. Read a low koff as a long-lived complex. A word on the kon: it is the rate constant with which the complex forms. A low value points to slower complex formation.

T2 sequence (P35225 other isoform, or with tags, fused parts or gaps limits assumed): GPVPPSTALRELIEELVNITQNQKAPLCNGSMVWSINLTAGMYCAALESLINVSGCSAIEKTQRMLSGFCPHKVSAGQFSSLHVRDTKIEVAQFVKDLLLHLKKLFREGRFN
T1 sequence (Q0PW92 entry or part of it): as the sequence (P35225 other isoform, or with tags, fused parts or gaps limits assumed) above, with G1S, R10K, M42V, S67N, H83R, L100V, R110Q counted along it

B1: BPC3214 (bispecific antibody, human IgG1, kappa)
heavy: not shown
light: DIQMTQSPSSLSASVGDRVTITCRSSQNIVHINGNTYLEWYQQKPGKAPKLLIYKISDRFSGVPSRFSGSGSGTDFTLTISSLQPEDFATYYCFQGSHVPWTFGQGTKLEIKRTVAAPSVFIFPPSDEQLKSGTASVVCLLNNFYPREAKVQWKVDNALQSGNSQESVTEQDSKDSTYSLSSTLTLSKADYEKHKVYACEVTHQGLSSPVTKSFNRGEC
In the case of B1, in assay [1], the affinity, expressed as Kd, was 0.0158 nM and the koff amounted to 5.07e-06 s⁻¹.

B2: BPC1086 (bispecific antibody, human IgG1, kappa)
heavy: not shown
light: DIVMTQSPLSLPVTPGEPASISCRSSQNIVHINGNTYLEWYLQKPGQSPRLLIYKISDRFSGVPDRFSGSGSGTDFTLKISRVEADDVGIYYCFQGSHVPWTFGQGTKLEIKRTVAAPSVFIFPPSDEQLKSGTASVVCLLNNFYPREAKVQWKVDNALQSGNSQESVTEQDSKDSTYSLSSTLTLSKADYEKHKVYACEVTHQGLSSPVTKSFNRGEC
Turning to B2, in assay [2], the “Mean ND50, TF-1 cell proliferation bioassay” value turned out to be 1.01 nM.

B3: BPC1093 (bispecific antibody, human IgG1, kappa)
heavy: not shown
light: DIVMTQSPLSLPVTPGEPASISCRSSQNIVHINGNTYLEWYLQKPGQSPRLLIYKISDRFSGVPDRFSGSGSGTDFTLKISRVEADDVGIYYCFQGSHVPWTFGQGTKLEIKRTVAAPSVFIFPPSDEQLKSGTASVVCLLNNFYPREAKVQWKVDNALQSGNSQESVTEQDSKDSTYSLSSTLTLSKADYEKHKVYACEVTHQGLSSPVTKSFNRGEC
notes: also called 829H-(TVAAPS)2GS-154 (89M)
In assay [3], B3 gave a Kd of 0.055 nM, a koff of 0.000211 s⁻¹ and a kon of 3.84e+06 M⁻¹ s⁻¹.

B4: BPC1112 (bispecific antibody, human IgG1, kappa)
heavy: not shown
light: DIVMTQSPLSLPVTPGEPASISCRSSQNIVHINGNTYLEWYLQKPGQSPRLLIYKISDRFSGVPDRFSGSGSGTDFTLKISRVEADDVGIYYCFQGSHVPWTFGQGTKLEIKRTVAAPSVFIFPPSDEQLKSGTASVVCLLNNFYPREAKVQWKVDNALQSGNSQESVTEQDSKDSTYSLSSTLTLSKADYEKHKVYACEVTHQGLSSPVTKSFNRGEC
notes: also called 829H-(TVAAPS)2GS-154 (89K)
Consider B4, for which the kon in assay [4] worked out at 1.14e+08 M⁻¹ s⁻¹.

B5: A1L1 (antibody, human IgG1, kappa, V domains shown)
VH: QVQLVQSGAEVKKPGSSVKVSCKASGFYIKDTYMHWVRQAPGQGLEWMGTIDPANGNTKYVPKFQGRVTITADESTSTAYMELSSLRSEDTAVYYCARSIYDDYHYDDYYAMDYWGQGTLVTVSS
VL: DIVMTQSPLSLPVTPGEPASISCRSSQNIVHINGNTYLEWYLQKPGQSPRLLIYKISDRFSGVPDRFSGSGSGTDFTLKISRVEADDVGIYYCFQGSHVPWTFGQGTKLEIKR
As for B5, the “ND50 human IL-13, TF-1 cell proliferation bioassay” value in assay [5] came to 2.52 nM. The “Mean ND50, TF-1 cell proliferation bioassay” value in assay [2] was found to be 5.01 nM.

(Values after patent publication US20100303821A1 (GlaxoSmithKline, published 2010).)
